Target: the molecule itself
Test: native gel or EMSA; Blue Native PAGE of inner membrane vesicles from a cell lysate, Western blot

B1: cysteine-less YidC (YidC0), monomeric construct (natural protein, E. coli, UniProt P25714 1-548, looked up)
chain: MDSQRNLLVIALLFVSFMIWQAWEQDKNPQPQAQQTTQTTTTAAGSAADQGVPASGQGKLISVKTDVLDLTINTRGGDVEQALLPAYPKELNSTQPFQLLETSPQFIYQAQSGLTGRDGPDNPANGPRPLYNVEKDAYVLAEGQNELQVPMTYTDAAGNTFTKTFVLKRGDYAVNVNYNVQNAGEKPLEISSFGQLKQSITLPPHLDTGSSNFALHTFRGAAYSTPDEKYEKYKFDTIADNENLNISSKGGWVAMLQQYFATAWIPHNDGTNNFYTANLGNGIAAIGYKSQPVLVQPGQTGAMNSTLWVGPEIQDKMAAVAPHLDLTVDYGWLWFISQPLFKLLKWIHSFVGNWGFSIIIITFIVRGIMYPLTKAQYTSMAKMRMLQPKIQAMRERLGDDKQRISQEMMALYKAEKVNPLGGSFPLLIQMPIFLALYYMLMGSVELRQAPFALWIHDLSAQDPYYILPILMGVTMFFIQKMSPTTVTDPMQQKIMTFMPVIFTVFFLWFPSGLVLYYIVSNLVTIIQQQLIYRGLEKRGLHSREKKKS
notes: membrane insertase YidC of E. coli, the plasmid-encoded yidC gene; cysteine 423 replaced by serine; Copies 2 is the dimeric form seen on Blue Native PAGE. 'Full length' rests on the words 'the yidC gene'; also called YidC-C0; monomeric YidC0; source: E. coli MK6, from plasmid pGZ119-YidC0, in inner membrane vesicles from a cell lysate
stoichiometry N: 2
